Test [1] addresses mouse c-kit (recombinant, on BIAcore chip) (mouse) (UniProt P05532). Put plainly: BIAcore 2000, 1 uM dAb. On the technique in general: SPR reads the build-up and loss of mass on a sensor chip optically.
Test [2] has the same target. Put plainly: BIAcore.
For test [3] the target is unchanged. Put plainly: BIAcore, c-kit on SA chip.
The target of test [4] is T1, Mouse cKIT ECD-Fc (mouse; human) (UniProt P05532).
T1 sequence (looked up): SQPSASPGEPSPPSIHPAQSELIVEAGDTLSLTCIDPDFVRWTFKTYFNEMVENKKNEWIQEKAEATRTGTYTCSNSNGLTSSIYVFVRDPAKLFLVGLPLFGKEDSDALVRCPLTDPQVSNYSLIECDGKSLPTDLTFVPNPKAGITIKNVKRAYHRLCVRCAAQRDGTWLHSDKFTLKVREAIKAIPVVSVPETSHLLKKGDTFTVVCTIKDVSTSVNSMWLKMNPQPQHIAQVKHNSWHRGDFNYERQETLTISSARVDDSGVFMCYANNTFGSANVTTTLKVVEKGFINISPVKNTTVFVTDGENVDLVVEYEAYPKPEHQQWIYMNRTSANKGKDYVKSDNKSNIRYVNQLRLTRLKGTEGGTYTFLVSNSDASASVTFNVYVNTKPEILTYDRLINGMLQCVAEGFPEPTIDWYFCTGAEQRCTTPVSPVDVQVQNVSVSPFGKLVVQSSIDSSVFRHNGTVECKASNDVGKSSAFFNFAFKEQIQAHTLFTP
Put plainly: BIAcore.

Test [5] has as its target human c-kit (recombinant, on BIAcore chip or beads) (human) (UniProt P10721). Put plainly: BIAcore.
For test [6], the target named is mouse c-kit (recombinant, on BIAcore chip) (mouse) (UniProt P05532). Put plainly: BIAcore, dAb at 1000 and 500 nM.
For test [7] the target is unchanged. Put plainly: BIAcore, approximate kinetic constants.

Chain of human c-kit (recombinant, on BIAcore chip or beads) (human) (P10721 26-524): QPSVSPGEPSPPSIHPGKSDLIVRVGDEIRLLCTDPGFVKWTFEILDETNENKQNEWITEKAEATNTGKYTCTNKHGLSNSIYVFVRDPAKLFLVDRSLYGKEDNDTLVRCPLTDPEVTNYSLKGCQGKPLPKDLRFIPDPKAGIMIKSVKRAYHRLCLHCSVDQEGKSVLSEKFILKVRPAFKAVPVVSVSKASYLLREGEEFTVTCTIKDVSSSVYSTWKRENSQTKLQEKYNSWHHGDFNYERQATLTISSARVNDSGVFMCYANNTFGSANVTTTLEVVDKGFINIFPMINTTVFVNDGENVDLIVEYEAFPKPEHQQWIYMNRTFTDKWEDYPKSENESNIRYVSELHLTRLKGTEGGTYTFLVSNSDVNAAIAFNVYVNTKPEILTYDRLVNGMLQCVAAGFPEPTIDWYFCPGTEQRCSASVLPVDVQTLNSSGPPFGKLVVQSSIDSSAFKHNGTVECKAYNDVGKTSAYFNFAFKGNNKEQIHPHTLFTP

B1: DOM28m-73 (protein)
chain: EVQLLESGGGLVQPGGSLRLSCAASGFTFKHYSMNWVRQAPGKGLEWVSRISPSGVSTYYADSVKGRFTISRDNSKNTLYLQMNSLRAEDTAVYYCAKIMNSHKADEFDYWGQGTLVTVSS
In general, Kd refers to a measure of binding affinity in units of concentration. Regarding B1, the Kd in test [1] and in test [2] was 9000 nM each time.

B2: DOM28m-23 (protein)
VH: EVRLLESGGGLVQPGGSLRLSCAASGFTFRDYVMVWVRQAPGKGLEWVSAIAPTGGYTYYADSVKGRFTISRDNSKNTLYLQMNSLRAEDTAVYYCAKSLRTWLSEDLPFDYWGQGTLVTVSS
Regarding B2, the results for the equilibrium dissociation constant (Kd) in test [3], in test [1] and in test [2] were 2800 nM, 22000 nM and 22000 nM, respectively.

B3: DMS5052 (chimeric MLC mAb-cKIT dAb, DOM28m-007) (bispecific antibody, not shown: a dimerising Fc or GST)
heavy (part 1 of 2): QVQLQQSGAELASPGASVKLSCKASGYTFTTYWIHWVKQRPGQGLEWIGAIYPGDGDTRYTQNFKDKATLTADSSSSTAYMQLSSLASEDSAVFYCAREGTPPFTTATFAMAYWGQGTSVTVSS
heavy (part 2 of 2): STGEVQLLESGGGLVQPGGSLRLSCAASGFTFSNYAMGWVRQAPGKGLEWVSSISSSGFATYYADSVKGRFTISRDNSKNTLYLQMNSLRAEDTAVYYCAKSESRTFKAFDYWGQGTLVTVSS
light: DIVMSQSPSSLAVSAGDKVTMSCKSSQSLLYSRTRKNYLAWYQQKPGQSPKLLIYWASTRQSGVPDRFTGSGSGTDFTLTISSVQAEDLAVYYCKQSYNLFTFGSGTKLEIKR
Turning to B3, the values for the Kd in test [2], in test [4] and in test [5] were 80 nM, 36 nM and 27 nM, respectively.

B4: DMS5060 (chimeric MLC mAb-cKIT dAb, DOM28h-094) (bispecific antibody, not shown: a dimerising Fc or GST)
heavy (part 1 of 2): QVQLQQSGAELASPGASVKLSCKASGYTFTTYWIHWVKQRPGQGLEWIGAIYPGDGDTRYTQNFKDKATLTADSSSSTAYMQLSSLASEDSAVFYCAREGTPPFTTATFAMAYWGQGTSVTVSS
heavy (part 2 of 2): STGEVQLLESGGGLVQPGGSLRLSCAASGFTFFPYAMGWVRQAPGKGLEWVSFISGRGDTTYYADSVKGRFTISRDNSKNTLYLQMNSLRAEDTAVYYCAKTATSDLWNFDYWGQGTLVTVSS
light: DIVMSQSPSSLAVSAGDKVTMSCKSSQSLLYSRTRKNYLAWYQQKPGQSPKLLIYWASTRQSGVPDRFTGSGSGTDFTLTISSVQAEDLAVYYCKQSYNLFTFGSGTKLEIKR
For the molecule B4, the results for the Kd in test [2], in test [4] and in test [5] were 14 nM, 13 nM and 36 nM, respectively.

B5: DOM28h-94 (protein)
VH: EVQLLESGGGLVQPGGSLRLSCAASGFTFFPYAMGWVRQAPGKGLEWVSFISGRGDTTYYADSVKGRFTISRDNSKNTLYLQMNSLRAEDTAVYYCAKTATSDLWNFDYWGQGTLVTVSS
B5: the Kd in test [3] and in test [6] was 1500 nM each time.

B6: DOM28h-94-10 (protein)
VH: EVQLLESGGGLVQPGGSLRLSCAASGFTVFPYAMGWVRQAPGKGLEWVSFISGRGDTTYYADSVKGRFTISRDNSKNTLYLQMNSLRAEDTAVYYCAKTATSDLWNFDYRGQGTLVTVSS
With B6, the Kd in test [7] was 112 nM.

B7: DOM28h-94-12 (protein)
VH: EVQPLESGGGLVQPGGSLRLSCAVSGFTVFPYAMGWVRQAPGKGLEWVSFISGRGDTTYYADSVKGRFTISRDNSKNTLYLQMNSLRAEDTAVYYCAKTATSDLWNFDYRGQGTLVTVSS
Turning to B7, the Kd in test [7] is 11 nM.

B8: DOM28m-7 (protein)
VH: EVQLLESGGGLVQPGGSLRLSCAASGFTFSNYAMGWVRQAPGKGLEWVSSISSSGFATYYADSVKGRFTISRDNSKNTLYLQMNSLRAEDTAVYYCAKSESRTFKAFDYWGQGTLVTVSS
As for B8, the Kd in test [1] came out at 4000 nM; in test [2], 3000 nM.
